Assay results taken from the supplement of paper PMC12042874.
± gives the uncertainty stated by the source.

Assay: amyloid nucleation score (Sup35N fusion, yeast selection) (log enrichment); library NNK3; higher = more nucleation; inactive = no reads after selection
In short: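 In psi-negative yeast, Sup35N fusions carrying peptides of 20 random codons were induced with 100 μM copper sulfate for 24 hours. The cells then grew 7 days at 30°C on medium lacking adenine and uracil, and plasmid inserts from input and output were Illumina-sequenced, excluding sequences with under 100 input reads. Nucleation score is the DiMSum log enrichment of output over input reads, centred on the mode score of non-aggregating sequences.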

Substance | amyloid nucleation score
ESIYVNPGDSL | inactive
KLCTVINRLYLHRGGNSNSQ | inactive
NESLIKVCSALILRKNMCGP | inactive
QLIWYTACKASIDVNRHGSG | inactive
LYMKSTKLVLTKRDISTFRC | 1.11 ± 0.14
PVRSPAACGDRLSVRVANME | inactive
AVIFFYRVISFLRWSFTLPV | inactive
YVAIMLAKSKTRS | inactive
SCKELLPFWARELLRFNRYC | inactive
GISALSVWFCISDRRSDQDH | 2.63 ± 0.057
RSQDNCR | inactive
WDEIIY | inactive
SMCKDFSAACESICGIPVGY | inactive
VTEYKFKVFLPMRKRSVIMV | inactive
SKSFVYPVNVCRRWLAVLGN | inactive
YFYIPGH | inactive
SVTPFPIIFN | inactive
TQSWLCRV | inactive
KFPFSGPSRMTRRVMQRALL | inactive
WLVGFLFILWV | inactive
PWDQDGGSTYSKGGPSNWEF | inactive
HGKSYILVWCMRHSRTECVR | inactive
AMFFYRWRCVGTGSFVMTGV | inactive

Substance | amyloid nucleation score
IMSNTLIHYLHRMLSSALCY | inactive
HYWVLSFLNETALIIEFWH | inactive
GFYLVKSSMSWVANWCGKHT | inactive
TWWFK | -0.234 ± 0.28
PTEVYEATYCHFTNLL | inactive
EYAKMSLCPSYRFCVLFASW | inactive
PQDQDDVKVLSRGVRYVWGH | inactive
FYDLFN | inactive
QSCCF | inactive
PYTWAMHLNLLITTDR | -0.032 ± 0.54
HYPIRERNAFLLNNDVDLLA | inactive
LVQSTRGSRSNTWACNERFV | inactive
LAVVDCGYM | inactive
RLATREDHAHLLDHACLVG | inactive
FVLVGL | inactive
YNFGLVNV | inactive
PNRFNIIHVKFRFSFYATLT | inactive
NVAFQCQKLTLLKGKLEPDR | 0.272 ± 0.93
LLFCVLFATPINCISLIMSE | inactive
GASGCLSWHFGLIV | inactive
NYEARLSG | inactive
YTIALTRGLKFMVINCRTFY | inactive
VFTFRWHVWRDWLMSEHCDK | -0.296 ± 0.55

Substance | amyloid nucleation score
RSSSPIRVHTINGDVYTDVV | inactive
TEHKVSFPHFVKYKPSLSSY | inactive
VVSMQYCLFS | 2.81 ± 0.072
RDGSQGEFWVLALARLGGTS | 0.311 ± 0.48
DFVRSNNCYWCFAAFSPCFR | inactive
MSLNNGGSGSCVCPFR | inactive
YSSARTFSLHCIERLYSGYV | inactive
DKEDHLSVFWAV | inactive
QRDTSGEYGIVWYYVFNRTG | inactive
STTDRTWNGYDDILYTYLYF | inactive
SQVVSRSLVRLEQRNAQKSV | inactive
IDLSAMFFAFFVIFVFVWIW | inactive
LRLSGVMHRTFYCVVSGHGR | inactive
HWTNHYNYCGRA | 1.19 ± 0.082
RCGILW | inactive
FMSSVM | inactive
HSLVSLWYGSRCIILSR | inactive
CVNTHRY | inactive
VRKPECSVVWVNQCWVQPPY | 2.15 ± 0.062
FVSVDGWSESMWLASVVLSE | inactive
QRSTKPW | -0.586 ± 1.9
YEKYDTKVWNCG | inactive
SGIIWQYNARLE | inactive

Substance | amyloid nucleation score
YHDFLYIEGWQMSETNSFEC | inactive
TLASQFSFLVS | inactive
TWVTAGYCVNIYRTRSWMK | inactive
KLLSTRRCFRCLLGQWSLFM | 1.17 ± 0.14
MHAVDNNLRVNIIMSVLLYK | inactive
AFAFYSD | inactive
RTDCV | inactive
DCMNGLVCFFMMCRGSLIRD | inactive
RMFNSYNQFLLVAMLPYPLR | 2.62 ± 0.071
SHRKMFQGVKQVISSPETHS | inactive
YSFRNSIDAFRLEYKKRYRF | -0.403 ± 0.93
SSISVRENYFMASRVMMVGC | 0.234 ± 0.56
YSRDIYVLEHV | inactive
DHRNVRRLKVRLTECIE | inactive
YSCTFYTLCPENI | 1.85 ± 0.07
AHSRWVSQCDITR | inactive
ILCVFVYRSRAESYEL | 0.446 ± 0.23
NMNSISYSQPIFRSRTRRRM | inactive
KLEMYVARSCDCAYDRCWGR | inactive
SHYRIMT | inactive
SFNLNCDDQSRNYRADVSDS | 1.16 ± 0.099
YIVLKYSEMRTRVTDYRTTG | inactive
FERISRSFAYIDIRHIICMF | 1.56 ± 0.11

Substance | amyloid nucleation score
MNCWYFLLGACWITIKHLFY | inactive
LRTPGTGSFAESEDLSMTEG | inactive
DSVNRCFARGILSCLVCL | inactive
KLYYIVRCEFCRDCKMAWGN | 1.29 ± 0.094
AFTHVTSVMTVQDSLGLCLL | inactive
FPMDL | inactive
IWDGSADKFVDPHRACRLWR | inactive
RFLLDRACLWLRGVI | inactive
LAVSGKEHAK | inactive
YPPTGMIWIRILVSV | inactive
YPNIERFTETWISYVDQNRG | -0.083 ± 0.58
VSVRVDLILKVVRRSSVWFT | inactive
LLKHMSLFVLRSSNR | inactive
GASNMFHDPELSG | inactive
RNPDLVVKSQGVNRWGDSRC | inactive
ELFMPDSIRT | inactive
SYFSYPCCCCVVARFLNYVC | inactive
QLLSLVKISNKLTVI | inactive
LNFCDRTIEICRLEY | inactive
CPSWCYFNRGDV | 1.39 ± 0.091
LMNEKNPSQDNRFRIVRALS | inactive
TSTDVQVGYVNMLLLRVLFF | inactive
VGSIYDSHNLPMSGHSDWNG | inactive

Substance | amyloid nucleation score
RTLYSQNFK | inactive
VCLHDRLGVHVGQIRLGYRC | inactive
RNISRS | inactive
FLVLLKTCYDSRPWP | 1.72 ± 0.094
VGCRMPVACRTWRDKYALAR | inactive
LCDSGWELMYKLCTDKDMIL | inactive
ICGIDSLN | inactive
YLQLTRQTSYVIIAL | inactive
YVFFLSLNIKPMLYTTLVGV | -0.138 ± 0.51
ERKCLLCNYHMY | inactive
KYTVEVNFLAFLRHIYCTSG | inactive
PYSISRLTSYDPFGHVPGTR | inactive
FGKRQSAMLLDLNSGWSNLD | -0.42 ± 1.3
IRFYQKCVLSACVTSTRIMV | inactive
LSDWKFDMCYCFFVLCQELW | inactive
TPIHRL | 0.451 ± 0.16
SNTFTPKGNPLWSSVCVFHQ | inactive
AYRYTHVCDMVLKWAVCCFY | inactive
CLTTVRLRNYFF | inactive
KPSSFNDAIR | inactive
FIASNASNCWYLMFVAKLYG | inactive
LYGAWSNIPLYMFSFHFMYR | inactive
MFNFEFLC | 2.33 ± 0.085

Substance | amyloid nucleation score
LRVCISGYSN | inactive
ARQYAIRWMWSVVIDGGEKS | inactive
CYGKLDGMTNDEEGTPVFAN | inactive
DFRRANGEYWLTAAPMLIHT | 0.396 ± 0.28
LYRVVYFDALKNCGYVVSFW | inactive
FFRTGFLVGNSSEYYMQY | 0.215 ± 0.46
RFIDWQVCD | inactive
PAQSQAYVLKAGGPRLDGRV | inactive
KKFLAPCSRCWPKMDITRLN | inactive
YYIYIYMCRLLVYIGFHFYW | inactive
SNQLSFLYNN | -0.409 ± 0.76
KLLSMGVSTKRRT | inactive
FWLGGVDLAPKVGKQTMNLA | inactive
SIDYADVK | inactive
HCLSHTLQHNHTMISANSRS | inactive
IMGYGWDCTSDGLCVTCFYS | inactive
LVVDYLEFCTFLVDVENIWT | inactive
ANVRMS | inactive
ILTYINEMSHLPWV | inactive
SSDMFFRYESPVH | inactive
AYRAITGSCVMSEVRGAWRL | inactive
CHGCMRLLSDGLKDEWYMIF | inactive
